Molecular target: GST-SHP2 PTP DAQA (substrate trapping mutant D425A/Q506A)
Test: pull-down

Work on “YFP-GluN2B, tyrosine phosphorylated, in cell lysate (from UniProt Q00960 27-1482) (receptor)” yielded a fold more pulled down than by GST-SHP2 WT of 14 fold.

Source: paper PMC6234505
